The domain aggregation screens of Martell et al. (2025)

Experiment: soluble fraction after stress (log2 fold change); higher = more stays soluble; pooled small domains, quantitative proteomics
Settings: stress: 75 degC
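Note: 20 min heating vs room temperature control held 20 min.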

Sequence	soluble fraction (log2)
HMHNLYAPTQKEVDHARRVVEAAEAAAREGLGVVSLNGKMVDGPVIDRARLVLSRAELSGIRE	-0.157
HMHNNTITLNKKTYVYTASGKKMSKYLGYTYINKGTTLNYYGTKNIKGKTFYYIGDHAYVNAANVGKVTN	-2.07
HMHNQIGDKIRELRTRSNLTQADLGKLVGVSMQAVSKWERGGTPDIDVLLSVAKYFNISLDEMVGRT	-1.51
HMHPEITLHPVRANIYSISVKNATSMEIYSVSGQLVGIRELKEGTNTLDLTGYINGVYIVNLQNKAFKLVK	-2.38
HMHPELSDSQRTLIALMASGLKDEAIAVEMGVGARTVRRKVQELYELLGVRTRFQAGVAANQRGW	-2.34
HMHPKDVPTRRELEVLQAVSEGLSTAEIGLRLDITENTVETFRRRLIQKFDAKNAIDLVVKAMAQGWIKV	-2.23
HMHQGTIEVGSIVHIEGQKALGTILSLTQREAIVGLGALKTTIPLKRLHLATEAEARRHKKSVTPQEAV	-0.66
HMHQIFAETVFEDIAFGPRNKGFNEEEVAKQVREAMAFVGLDYDTYAQRSPFQLSGGQMRRVAIAGVVA	0.0104
HMHQKYIITGTRDTYVVSQGETLRTIAEHVYGSRGYARYIIEHNHITHPDDIPVGLTIRLPELELNPDYR	-1.9
HMHRAKRTKAQTQSSLESIEGIGPKTRKQLLVHFGGLAEVKAASVSELQKVKGISLDKAQKIYDFFHGS	-0.617
HMHRNLSFEEEKEFLSAYTKQAEAGQIVDLNEMKAAYIEKVGHSIGGSQIYRMLERHGWRKVM	-0.446
HMHSDSEIEKGYTDDGQKLSNVNGVYMTKSEMYNKGIVEKDPNTGEEVMGRNRVNPVTGELE	0.442
HMHSDWITWWYLKDKRFDDDYSLWDRQPVHPEYFEVVKEFKAPPESNPGGLDEVKRILRTYIPDAFAP	-1.11
HMHSESAAHQRTSVELFARIPETGNLQSAQRHFDVINQFGRFPHRNKILQRPSSEQEEAFLRQPGSG	0.265
HMHSILDDIPTVGPARRKALMRRYESLEAIRQATVDELKELPEINEASAEAIVSFFAGQAKEG	-0.306
HMHSRTWTSADGVKTFEGELQSYDAASGKVSVILPNHKRITFKQEKLSADDIAWLEKNGNRP	-0.033
HMHTGLTNYEYKQIKSSLLKILTQSESMRLGELVDKVDQFESEKVTTVIRFLVGNEELMLFDDTLTLKKQL	-0.202
HMHTTIIVASRDIAAGSVLTSHDLSSVAWVGGAVPKGSYTAADLAVGKTAFTAFQQGEPILESRLAS	-0.35
HMHVVVIDKQGALSYQGKAITLLDLKNIVIDVPKETPFLIKADKDIHLQSFVEVLDLIKTAGFKKVSLQ	-2.86
HMIAANMTISQRIAAALAEYGVMSVKDIAQEVLGATDKKDTEKIRVTLTRDHGKRFRTYSDGTWSLKDWRP	-2.19
HMIAAVIAQVANTNERIILEKRYLSFKSWDEIAVEMRISPRWAYTLHERALKAVDQVLSKQNNE	-4.19
HMIADDLKSLEGVDQDMLRDLAEAGINTRDDLAELAIDELIEITGVSTEEAEKVIMAARAHWFEEES	0.318
HMIAKEDDGTAFLIDGKISSEEEFKTISKDDILEVFVYKETEIAQKKLDSINSINNTYYTSLIEILLKE	≥ 1.04
HMIAKIEGQISYVGNRFLIVDVSGVGYKLFVTNEAISLSKVEESIKLWVHTAVRENSIDLYG	-1.7
HMIANDDEIRKVVLEVIEEQPKAVEDVKNGRDRILDFLVGQVMKKTRGKANPSLASNLMKEEIEK	0.453
HMIANNFDEFVEKVSEAERKALNMPAGQEMTQKLLEMKLAANPNLTPEEWQRTKSEFMTFLFAVFVRE	-0.939

Sequence	soluble fraction (log2)
HMIAVLEEGSHFRAVNDVTGKPFGPEMVIKNGQVTAVGKTISTKPKNLLGKKEGTKFVISGKQYVIKDI	-0.0244
HMIDAHTALLAKRLEAKGMLPLTDKSSAEEIYAEFGISKKAFKKALGALYKERLVRIGEDGVVWI	-1.8
HMIDFIGLEAKLLSTISGEKMGNAEVIVDGNVMNIYVKSLDTSEIKFRENVLIIKQSDDKNYYLVAKP	-3.26
HMIDIDTILKKYKPGRRDELIPLMQEIQEVYGHLSEEAVVKIGTYVGLSTTKIYGLATFYDQFRF	-1.76
HMIDLGKSRTWHSENGRAIEARVINISEEQQTVEMQRVDGLKFELSWNQLSKADQTLLAEAAKKTALVA	-0.0567
HMIDLPDIDIDFAKRTGVLEHITHTPARLETGKQHNTGVYFTDIPRGVDGLATMDHKRAEQLGYFKLDML	0.0214
HMIDNKIIRSLRQKRNMTLEELAKKANISVSYLSEIELGKKQPSLETINKLSQALNISREGLI	-0.0581
HMIDPHGSLTLDLRPRDARVEIIDSNKTYKPGVRLPMGEYAIAVSRRGYISETKRINIEYGDNRERVAL	0.108
HMIDSDENERIKELIKALISETLKSRGVSPEVISDIKERVDRLHNEELPRFAAELKELISRN	-0.0979
HMIDSEEVMETIQDLGYSPVFDVKEKFYKIKEEQIGKITLEVHIILRYGMVDLVWIVRENGELLLG	-0.0952
HMIDTLEYIISEESKGLRADQAITMVNGEFSRSLIQKWIKKGSILVNGKKIKPRDILNLNDKVTINPEEN	-0.24
HMIEDMQQWIRQIREIVSNRLDLTRNISDDEIREVISDIVMEQSRQQYMSLNEKKTLMEGVFNSMR	-0.534
HMIEEIETQFLFDFGLIGHPNSAKIREKLSEALGIGYVNGKQLQKRLMMFGITKQQVVDVLTD	-4.78
HMIEMAGGYRKGDRVELHSLKGAAEHNGKQGTVVGPQGERVKVLLDDSDSKTLALKVTNLTKLESA	0.0656
HMIEMGNRIRTLRKRRVGSQSEFAEKLDVSVVTISRIENGMTKIDAELLIKMSEVLQVPVNIILGM	-3.29
HMIENPGQTFERIAGKITRTLRTGPLRIQQLDLLFSESGEQVMDVLRAMAENGEILIKDDTIQWNGHN	-0.246
HMIERKLRKKEHFIASVGEKVKIKNFATETYKGELISADNEKVVVETEFGKEEITYDNILAAATYFE	-0.808
HMIFNENLKSAREKKGLSQKEVAEAIGVAKSTYSLYESGNREPNVQTIKRIADVLNVSADVLLGL	-0.136
HMIGELVVEDLAAASEINVDTIRYYQRLGLLEPPRRRGRRAVYDHTHLERLAEIRRLAGAGFTLAQIGRLK	-3.19
HMIGILSDREAEILALLDEGLTNKAIGRRLNLAEPTVKFHLKNLYAKLGVGRRQLAVNVAKGSGLLNSD	-1.4
HMIGIRLKELVLKNQSAWVGLRVSELDISRKTMIVMIRRGDKMLIPNGSTILRSGDVLLLYTR	-0.682
HMIGITTANLNVRTGTDTNYTSIAILPKGTKVNILEENVKPGWYKIQFDEIYAFVSSKYIKIQS	-3.56
HMIGMDMQELIGRYKGDPDEMGKIELAAMSMLKLSEDMSSDHVLQKSKLRQDGLWLLKYVQE	-0.637
HMIHEQSLHKIRNFIGSLPESLRTAFTLREQDGLSYEEIGKITNTPIGTVRSRIYRARESILDHINQE	-1.23
HMIHIGAQEALGEFQDEEGNLTASKKEVVAALVKKSKEVSFPTSYEYEVAARMAADEYNDAGQRMA	0.167
HMIHKTDAINLGQRLLKSSLKEFDVSLKDIPNKTLMYILSEYKFNSLDDLYREIGLGNVIPKLVALRMAP	-0.585

Sequence	soluble fraction (log2)
HMIHTYVETRKVGNNDGLIRVDNKYYRVPQHLVGMKVQIQIDEATISVLQGGVMVATLDKTADVFNPQA	-3.24
HMIIDPQIRTLWTSQIIDILKSNPKRSIRSILELYPSNKESWVLIILQELIGEEKIIRDLDYLYFNK	-1.79
HMIIIMKMGADESQVQETIKRIKDLGFNTHLSKGENRTIIGVIGDVSSIDESDVERLRATPYIAEVVRVS	-0.455
HMIIIPKKDYDVSQLDNLVSWLKDRGLEVHISRGENLTVIGLIGDTSKIDIDLIRSLDVVEEVKRIQ	-0.749
HMIIVMASSKKEDVAHVVHKIEELGYKAHVIVGVERTVVAAVGDERGKERLISLEALPHVEKVFPILK	-2.16
HMIKEVEYSQFLQMTDQGEVGKVEINEQENSILFTDKAEKNIYKTGMVEDAELSMRLYEAGIPFSGQI	0.101
HMIKEYEVLNYVTYEYDEIKKKLEEDFGIIVLMKEAYSDETPAGIIMDQDVEQGRIFKEGATNTITFTVS	-0.582
HMIKLSEAEWKVMKLLWEESPKTMMQITNLLKETTGWTKHTVMTFLKRMEEKKAIHYEEGGRAKLYYP	-0.863
HMIKVASVDGASDELAHEIREIMPLDFPVSYFDLDIKYLHKVLNDIPAVESAAIKVTVSGVLQIDISER	0.569
HMILALAISSEEDDARIYATYADRLREAYPASARVFEGMVDEEHEHRRRLIDLFQRRFGDTIPLVRREHV	-0.446
HMILNPADEEKMNLINFELQQRGLEINDKEMQYIFTHHSRDLNSLLNLAEKLDEISHQEKKSISINLIKKI	-0.0616
HMILNWSEYTRSEIIELARDLSPDKYMIIDDINTYSKMKLLPSQAFIAEMFGSLRQFQKEAWGRE	-1.62
HMILPKFNQLLGQMGENIKLARKRRKLTAVQVSERAGIARSTLYLIEKGDASVSLGAYFNVLRVLG	-1.67
HMIMEVDYGTFMKMTEENAIGRVQMDSTEIIFTDKENTQVYSTGIMYDPDLTQRLYDAGAVFA	-0.536
HMIMGTIEKRGPFSFRIGVQVRLPDGSWEWIRDTIHVSPDLSARAARKQAEMALARLEADVYEGKRKPD	-2.18
HMIMLDRILKIMDYNKFTPSEFADVLEIDRSRLSHILNGRNKPSLEIVMKILEKFPEISSDWLLFGSGNML	-2.73
HMIMNEYEELRDRYLIGQIWKIGDLIEAKGIEGKIIQRGTNYVTFNDNNGKVHKAWLHEIKYEQ	-0.433
HMIMNKEIPVVADEFVEKEFGTGAVKLTPAHDPNDYESGERHGLEVVEVFDETGKMNDLVPEYEG	0.757
HMIMTGSIQEKNGKYYTVLNIKDKNGKYKKKWQTTGLPVKGNKRKAEQILRRRIAEYEANQL	-0.861
HMIMTHSALLEKDGFDIVKVHFERPNDDGFDFLDMTLPGEIVYKSFGFSEDEILKLKRYAKNNSSLIWDF	-2.5
HMINEDMTQSDRMELWGRLIDVVEDWLAEKGITEEDIPNEEREGVEDAAIIFGDDYDYLADRFSEVIGISR	-1.2
HMINFKVKNVQDVGSRLDKFLVTNIPEFSRSKIQKHIKNGKVMVNGLLKKTGYKLEINDEINILNN	-0.521
HMINLDYILELIFEKNNKTKDKTALIEEIRGVIRASVGNRAKESLIVDFINDTDLDTITDKASIIESFFEY	-2.97
HMINLTKVGNFISIIKLQQIWTIDELLKKVDINYDELLYLLTILSDIYSKNGEYFFDFDIDAENNKILFNN	0.0266
HMINVGYKFKQIRENAGLTLKQVSAMSGLSVSFISQIERGVVDPSWSSLKKISAALNIKLKDLF	-2.82
